Measurements from article doi:10.1101/2020.08.16.252742.

Assays:
[1] = biological target: HIV-1 JR-FL Env glycoprotein (unlabelled) on HIV-1 Gag-GFP pseudovirions (HIV-1 JR-FL); assay: single-molecule photobleaching
[2] = biological target: HIV-1 NL4-3 Env glycoprotein (unlabelled) on HIV-1 Gag-GFP pseudovirions (HIV-1 NL4-3); assay: single-molecule photobleaching

HIV-1 JR-FL Env glycoprotein (unlabelled) on HIV-1 Gag-GFP pseudovirions (complex)
stoichiometry N [1]: > 2 Envs

HIV-1 NL4-3 Env glycoprotein (unlabelled) on HIV-1 Gag-GFP pseudovirions (complex)
stoichiometry N [2]: > 3 Envs
